Assays:
[1] = target: GST-karyopherin α (karyopherin α expressed as a fusion protein with glutathione S-transferase), immobilized on glutathione Sepharose beads; assay: pull-down on GST-karyopherin α beads, PCR; against untreated extract
[2] = target: GST-karyopherin α (karyopherin α expressed as a fusion protein with glutathione S-transferase), immobilized on glutathione Sepharose beads; assay: pull-down on GST-karyopherin α beads, PCR
[3] = target: GST-karyopherin α (karyopherin α expressed as a fusion protein with glutathione S-transferase), immobilized on glutathione Sepharose beads; assay: pull-down on GST-karyopherin α beads, PCR, Phosphorimager; against untreated lysate

Substance: HIV-1NLHX pre-integration complexes that lack Vpr (MA NLS+ Vpr-)
- percent reduction of binding in the presence of 1 µM CNI-H0294 (small molecule) [1]: 95%

Substance: HIV-1NLHX pre-integration complexes with mutated MA NLS (MA NLS- Vpr+)
- binding as percent of that of MA NLS+ complexes (% of MA NLS+ complexes) [2]: 1 to 5

Substance: HIV-1RF pre-integration complexes
- fold reduction of binding in the presence of 0.1 µM CNI-H0294 (small molecule) [3]: 8 fold
- fold reduction of binding in the presence of 1 µM CNI-H0294 (small molecule) [3]: 25 fold

Substance: wild-type HIV-1NLHX pre-integration complexes
- percent reduction of binding in the presence of 1 µM CNI-H0294 (small molecule) [1]: 95%

From US20100137566A1
